According to patent publication US20210393713A1 (published 2021):

Molecular target: AAV-PHP.B capsid (AAV9 variant with the […] insert)
Assay: SPR

B1: LY6A as used in SPR (immobilized on the sensor chip, or monomeric in solution) (receptor)
chain: LECYQCYGVPFETSCPSITCPYPDGVCVTQEAAVIVDSQTRKVKNNLCLPICPPNIESMEILGTKVNVKTSCCQEDLCNVAVPNG
Kd: 0.119 nM
